Here are results for 14 molecules from patent publication US20200199234A1 (published 2020).

What is called EC50 is the midpoint of the concentration-response curve. As a reminder, the Kd is the concentration at which binding is half-saturated. By koff is commonly meant a measure of how fast the partners let go of each other. By kon is commonly meant the second-order rate constant of association.

The chains are these.
T1: human CD19 on Nalm6 B cells (human, UniProt P15391 20-556)
T1 sequence: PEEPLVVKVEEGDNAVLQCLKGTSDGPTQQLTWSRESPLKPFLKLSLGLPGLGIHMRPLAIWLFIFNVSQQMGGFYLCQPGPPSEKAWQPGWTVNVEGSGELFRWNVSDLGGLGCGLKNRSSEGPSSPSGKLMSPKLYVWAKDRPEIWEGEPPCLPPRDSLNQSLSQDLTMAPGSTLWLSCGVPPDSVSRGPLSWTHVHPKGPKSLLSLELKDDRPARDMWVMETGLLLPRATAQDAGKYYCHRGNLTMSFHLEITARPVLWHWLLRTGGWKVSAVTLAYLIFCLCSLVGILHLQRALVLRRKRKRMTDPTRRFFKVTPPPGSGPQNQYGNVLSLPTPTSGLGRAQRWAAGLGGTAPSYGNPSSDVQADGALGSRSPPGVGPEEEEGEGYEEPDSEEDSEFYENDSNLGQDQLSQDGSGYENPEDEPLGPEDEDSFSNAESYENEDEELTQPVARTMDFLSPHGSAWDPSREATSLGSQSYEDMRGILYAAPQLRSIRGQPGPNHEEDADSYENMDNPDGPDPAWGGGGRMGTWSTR

T2: recombinant CD79b-His (Sinobiological #29750-H08H) (Homo sapiens (Human), UniProt P40259 29-159)
T2 construct: bought protein; also called soluble recombinant CD79b-His
T2 sequence: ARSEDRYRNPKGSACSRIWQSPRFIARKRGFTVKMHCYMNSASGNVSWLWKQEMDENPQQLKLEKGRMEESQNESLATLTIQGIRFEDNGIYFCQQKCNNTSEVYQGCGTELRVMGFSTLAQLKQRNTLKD

B1: FAP (4B9) - CD28 (CD28(SA)_Variant 11) 1+1 (bispecific antibody, human IgG1, kappa, L234A L235A)
heavy 1: EIVLTQSPGTLSLSPGERATLSCRASQSVTSSYLAWYQQKPGQAPRLLINVGSRRATGIPDRFSGSGSGTDFTLTISRLEPEDFAVYYCQQGIMLPPTFGQGTKVEIKSSASTKGPSVFPLAPSSKSTSGGTAALGCLVKDYFPEPVTVSWNSGALTSGVHTFPAVLQSSGLYSLSSVVTVPSSSLGTQTYICNVNHKPSNTKVDKKVEPKSCDKTHTCPPCPAPEAAGGPSVFLFPPKPKDTLMISRTPEVTCVVVDVSHEDPEVKFNWYVDGVEVHNAKTKPREEQYNSTYRVVSVLTVLHQDWLNGKEYKCKVSNKALGAPIEKTISKAKGQPREPQVCTLPPSRDELTKNQVSLSCAVKGFYPSDIAVEWESNGQPENNYKTTPPVLDSDGSFFLVSKLTVDKSRWQQGNVFSCSVMHEALHNHYTQKSLSLSP
light 1: EVQLLESGGGLVQPGGSLRLSCAASGFTFSSYAMSWVRQAPGKGLEWVSAIIGSGASTYYADSVKGRFTISRDNSKNTLYLQMNSLRAEDTAVYYCAKGWFGGFNYWGQGTLVTVSSASVAAPSVFIFPPSDEQLKSGTASVVCLLNNFYPREAKVQWKVDNALQSGNSQESVTEQDSKDSTYSLSSTLTLSKADYEKHKVYACEVTHQGLSSPVTKSFNRGEC
heavy 2: not shown
light 2: not shown
B2: FAP (4B9) - CD28 (CD28(SA)_Variant 12) 1+1 (bispecific antibody, human IgG1, kappa, L234A L235A)
heavy 1: B1 heavy 1
light 1: B1 light 1
heavy 2: not shown
light 2: DIQMTQSPSSLSASVGDRVTITCRASQNIYVWLNWYQQKPGKAPKLLIYKASNLYSGVPSRFSGSRSGTDFTLTISSLQPEDFATYYCQQGQTYPYTFGQGTKLEIKRTVAAPSVFIFPPSDRKLKSGTASVVCLLNNFYPREAKVQWKVDNALQSGNSQESVTEQDSKDSTYSLSSTLTLSKADYEKHKVYACEVTHQGLSSPVTKSFNRGEC
B3: FAP (4B9) - CD28 (CD28(SA)_Variant 15) 1+1 (bispecific antibody, human IgG1, kappa, L234A L235A)
heavy 1: B1 heavy 1
light 1: B1 light 1
heavy 2: not shown
light 2: not shown
B4: FAP (4B9) - CD28 (CD28(SA)_Variant 29) 1+1 (bispecific antibody, human IgG1, kappa, L234A L235A)
heavy 1: B1 heavy 1
light 1: B1 light 1
heavy 2: not shown
light 2: not shown
B5: Molecule 11D: CEA (A5H1EL1D)-CD28 (SA_Variant 29) 1+1 format (bispecific antibody, human IgG1, kappa, L234A L235A)
heavy 1: EIVLTQSPATLSLSPGERATLSCRASSSVTYIHWYQQKPGQAPRSWIYATSNLASGIPARFSGSGSGTDFTLTISSLEPEDFAVYYCQHWSSKPPTFGQGTKLEIKSSASTKGPSVFPLAPSSKSTSGGTAALGCLVKDYFPEPVTVSWNSGALTSGVHTFPAVLQSSGLYSLSSVVTVPSSSLGTQTYICNVNHKPSNTKVDKKVEPKSCDKTHTCPPCPAPEAAGGPSVFLFPPKPKDTLMISRTPEVTCVVVDVSHEDPEVKFNWYVDGVEVHNAKTKPREEQYNSTYRVVSVLTVLHQDWLNGKEYKCKVSNKALGAPIEKTISKAKGQPREPQVCTLPPSRDELTKNQVSLSCAVKGFYPSDIAVEWESNGQPENNYKTTPPVLDSDGSFFLVSKLTVDKSRWQQGNVFSCSVMHEALHNHYTQKSLSLSP
light 1: EVQLLESGGGLVQPGGSLRLSCAASGFTFTDYYMNWVRQAPGKGLEWLGFIGNKANAYTTEYSASVKGRFTISRDKSKNTLYLQMNSLRAEDTATYYCTRDRGLRFYFDYWGQGTTVTVSSASVAAPSVFIFPPSDEQLKSGTASVVCLLNNFYPREAKVQWKVDNALQSGNSQESVTEQDSKDSTYSLSSTLTLSKADYEKHKVYACEVTHQGLSSPVTKSFNRGEC
heavy 2: not shown
light 2: not shown
notes: also called P1AE4776; copies: 1 + 1 + 1 + 1
B6: Molecule 11C: CEA (A5H1EL1D)-CD28 (SA_Variant 15) 1+1 format (bispecific antibody, human IgG1, kappa, L234A L235A)
heavy 1: B5 heavy 1
light 1: B5 light 1
heavy 2: not shown
light 2: not shown
notes: also called P1AE4775; copies: 1 + 1 + 1 + 1
B7: Molecule 11B: CEA (A5H1EL1D)-CD28 (SA_Variant 8) 1+1 format (bispecific antibody, human IgG1, kappa, L234A L235A)
heavy 1: B5 heavy 1
light 1: B5 light 1
heavy 2: not shown
light 2: not shown
notes: also called P1AE4774; copies: 1 + 1 + 1 + 1
B8: Molecule 11A: CEA (A5H1EL1D)-CD28 (SA) 1+1 format (bispecific antibody, human IgG1, kappa, L234A L235A)
heavy 1: B5 heavy 1
light 1: B5 light 1
heavy 2: not shown
light 2: not shown
notes: also called P1AE4773; copies: 1 + 1 + 1 + 1
B9: Molecule 18C: CD19 (8B8-2B11)-CD28 (SA v8) 1+1 (bispecific antibody, human IgG1, kappa, L234A L235A)
heavy 1: not shown
heavy 2: DIVMTQTPLSLSVTPGQPASISCKSSQSLETSTGTTYLNWYLQKPGQSPQLLIYRVSKRFSGVPDRFSGSGSGTDFTLKISRVEAEDVGVYYCLQLLEDPYTFGQGTKLEIKSSASTKGPSVFPLAPSSKSTSGGTAALGCLVKDYFPEPVTVSWNSGALTSGVHTFPAVLQSSGLYSLSSVVTVPSSSLGTQTYICNVNHKPSNTKVDKKVEPKSCDKTHTCPPCPAPEAAGGPSVFLFPPKPKDTLMISRTPEVTCVVVDVSHEDPEVKFNWYVDGVEVHNAKTKPREEQYNSTYRVVSVLTVLHQDWLNGKEYKCKVSNKALGAPIEKTISKAKGQPREPQVCTLPPSRDELTKNQVSLSCAVKGFYPSDIAVEWESNGQPENNYKTTPPVLDSDGSFFLVSKLTVDKSRWQQGNVFSCSVMHEALHNHYTQKSLSLSP
light 1: not shown
light 2: QVQLVQSGAEVKKPGASVKVSCKASGYTFTDYIMHWVRQAPGQGLEWMGYINPYNDGSKYTEKFQGRVTMTSDTSISTAYMELSRLRSDDTAVYYCARGTYYYGPQLFDYWGQGTTVTVSSASVAAPSVFIFPPSDEQLKSGTASVVCLLNNFYPREAKVQWKVDNALQSGNSQESVTEQDSKDSTYSLSSTLTLSKADYEKHKVYACEVTHQGLSSPVTKSFNRGEC
notes: also called P1AF0175; CD19-CD28 v8
B10: Molecule 18A: CD19 (8B8-2B11)-CD28 (SA v29) 1+1 (bispecific antibody, human IgG1, kappa, L234A L235A)
heavy 1: not shown
heavy 2: B9 heavy 2
light 1: not shown
light 2: B9 light 2
notes: also called P1AE8002; CD19-CD28 v29
B11: Molecule 18E: CD19 (8B8-2B11)-CD28 (SA v27) 1+1 (bispecific antibody, human IgG1, kappa, L234A L235A)
heavy 1: not shown
heavy 2: B9 heavy 2
light 1: not shown
light 2: B9 light 2
notes: also called P1AF0378; CD19-CD28 v27
B12: Molecule 18B: CD19 (8B8-2B11)-CD28 (SA v15) 1+1 (bispecific antibody, human IgG1, kappa, L234A L235A)
heavy 1: not shown
heavy 2: B9 heavy 2
light 1: not shown
light 2: B9 light 2
notes: also called P1AE9040; CD19-CD28 v15
B13: Molecule 18D: CD19 (8B8-2B11)-CD28 (SA v11) 1+1 (bispecific antibody, human IgG1, kappa, L234A L235A)
heavy 1: not shown
heavy 2: B9 heavy 2
light 1: not shown
light 2: B9 light 2
notes: also called P1AF0377; CD19-CD28 v11
B14: Molecule 18F: CD79b (huMA79b.v28)-CD28 (SA v15) 1+1 (bispecific antibody, human IgG1, kappa, L234A L235A)
heavy 1: not shown
heavy 2: DIQLTQSPSSLSASVGDRVTITCKASQSVDYEGDSFLNWYQQKPGKAPKLLIYAASNLESGVPSRFSGSGSGTDFTLTISSLQPEDFATYYCQQSNEDPLTFGQGTKVEIKSSASTKGPSVFPLAPSSKSTSGGTAALGCLVKDYFPEPVTVSWNSGALTSGVHTFPAVLQSSGLYSLSSVVTVPSSSLGTQTYICNVNHKPSNTKVDKKVEPKSCDKTHTCPPCPAPEAAGGPSVFLFPPKPKDTLMISRTPEVTCVVVDVSHEDPEVKFNWYVDGVEVHNAKTKPREEQYNSTYRVVSVLTVLHQDWLNGKEYKCKVSNKALGAPIEKTISKAKGQPREPQVCTLPPSRDELTKNQVSLSCAVKGFYPSDIAVEWESNGQPENNYKTTPPVLDSDGSFFLVSKLTVDKSRWQQGNVFSCSVMHEALHNHYTQKSLSLSP
light 1: not shown
light 2: EVQLVESGGGLVQPGGSLRLSCAASGYTFSSYWIEWVRQAPGKGLEWIGEILPGGGDTNYNEIFKGRATFSADTSKNTAYLQMNSLRAEDTAVYYCTRRVPIRLDYWGQGTLVTVSSASVAAPSVFIFPPSDEQLKSGTASVVCLLNNFYPREAKVQWKVDNALQSGNSQESVTEQDSKDSTYSLSSTLTLSKADYEKHKVYACEVTHQGLSSPVTKSFNRGEC
notes: also called P1AE9039; CD79b-CD28

In one assay the target is T3, human CD28 expressed on cells (CHO-k1 stably overexpressing human CD28; T cells in functional assays) (human, UniProt P10747 19-220). Description: cell-based or functional assay.
B1: the “EC50 killing (nM), TCB-mediated killing of MV3 target cells” value (shortened to “EC50 killing (nM), TCB-mediated killing”) was 1.73 nM.
Regarding B2, the “EC50 killing (nM), TCB-mediated killing” value stood at 0.98 nM.
With B3, the “EC50 killing (nM), TCB-mediated killing” value was found to be 1.79 nM.
For B4, the “EC50 killing (nM), TCB-mediated killing” value was 1.11 nM.

Another assay deals with T4, FcRn, biotinylated, coupled to streptavidin-sepharose (Homo sapiens (Human), UniProt P55899 24-297; P61769 21-119, The receptor is biotinylated and coupled to streptavidin-sepharose. The patent states neither the biotinylation site nor any tag.).
T4 construct: also called FcRn-sepharose matrix; copies: 1 + 1
In words: FcRn affinity chromatography.
For B5, the “FcRn affinity (relative retention time)” value amounted to 0.17.
B6: the “FcRn affinity (relative retention time)” value came out at 0.1.
For the molecule B7, the “FcRn affinity (relative retention time)” value stood at 0.08.
Still for that read-out and setting: as for B8, the figure is 0.21.

In the next assay the target is T1, human CD19 on Nalm6 B cells. Description: flow cytometry on Nalm6 cells.
In the case of B9, the EC50 came to 0.232 nM.
With B10, the EC50 was determined as 0.274 nM.
With B11, a half-maximal response (EC50) required 0.368 nM.
B12: it took 0.416 nM to reach a half-maximal effect (EC50).
As to B13, the EC50 amounted to 0.363 nM. The EC50 values of the last two molecules are within 1.5-fold of each other.

For a further assay, the target named is T3, human CD28 expressed on cells (CHO-k1 …). In words: flow cytometry on CHOk1-CD28 cells. In general terms: Flow cytometry measures light scatter and fluorescence of single cells or particles in a stream.
On to B9, for which the EC50 was found to be 232 nM.
For B10, the EC50 is 6.65 nM. Compared with the last molecule, the EC50 is about 35-fold lower.
On the same count and under the same terms, the same measure for B11: 10.8 nM.
Turning to B12, the response was half-maximal at 15.6 nM (EC50).
Same read-out and setting: as for B13, the figure is 150 nM.

A further assay deals with T2, recombinant CD79b-His (Sinobiological …). Description: SPR Biacore T200, CD79b-His captured by anti-penta-His. (In SPR one partner is held on a chip, and binding of the other changes the refractive index at the surface.)
For B14, the Kd stood at 76 nM, the koff was 0.0195 s⁻¹ and the kon is 257000 M⁻¹ s⁻¹.
